Several values for one entry are separate records, joined by “and”; a condition that tells them apart may be missing. Equal entries are not always repeated.

Data set [1] has as its target full-length Hermes transposase (with the mutations Q2E and K128G) (Musca domestica) (UniProt Q25442). Description: cryo-EM structure; RE-RE transpososome: Hermes with 8 + RE-TIR + 30 DNA, 8:2 protein-to-DNA, 150 mM NaCl, 25 mM HEPES.Na pH 7.5, purified by SEC. For orientation: Size exclusion chromatography separates by hydrodynamic size, large species first.
The target is the same in data set [2]. Description: cryo-EM structure; LE-LE transpososome: Hermes with 8 + LE-TIR + 30 DNA, 8:2 protein-to-DNA, 150 mM NaCl, 25 mM HEPES.Na pH 7.5, purified by SEC.
Data set [3] shares this target. Description: mass photometry; Hermes (10 µM) mixed with 2.5, 5 or 10 µM left-end DNAs, dialysed to 150 mM NaCl, 25 mM HEPES.Na pH 7.5, 0.3 mM TCEP, diluted 50 and 100 times; composition by subtracting the mass of the hexamer or octamer.
For data set [4] the target is unchanged. Description: SEC + other: mass photometry; purified Hermes transposase alone, dialysed against 25 mM HEPES.Na pH 7.5, 0.3 mM TCEP with 0.5, 0.25 or 0.15 M NaCl; Superose 6 SEC; mass photometry at 50, 65 and 30 nM; higher salt favours the octamer, lower salt the hexamer.
For data set [5] the target is unchanged. In words: cryo-EM structure; LE-LE transpososome: Hermes with 8 + LE-TIR + 30 DNA, 8:2 protein-to-DNA, 150 mM NaCl, 25 mM HEPES.Na pH 7.5, purified by SEC. The source holds these as a separate data set.
The target in data set [6] is T1, Hermes BED domain (Musca domestica, UniProt Q25442 1-78).
T1 sequence: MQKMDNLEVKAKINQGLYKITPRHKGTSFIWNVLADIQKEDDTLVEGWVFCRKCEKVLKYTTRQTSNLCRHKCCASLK
Description: EMSA; two BED per DNA, cooperative; 0.5 uM ran17 competitor; value assigned by the peer review file; BED EMSA: 25 mM HEPES.Na pH 7.5, 150 mM NaCl, 0.3 mM TCEP, 1 uM DNA, 0.5 uM ran17, 0-10 uM BED, 1 h 4 C then 15 min RT; 15% PAGE 0.5X TBE; Hermes SEC at 150 mM. The conditions noted are these: protein: recombinant; tags: untagged; label: 5'-6FAM top strand (EMSA, 10% of the DNA); blunt. (A gel shift assay detects complexes by their altered migration in electrophoresis.)

The target in data set [7] is T1, Hermes BED domain. In words: EMSA; one BED per DNA; Kd in Fig. 6c is 1.7 or 2.8 uM, assignment not resolvable from text; BED EMSA: 25 mM HEPES.Na pH 7.5, 150 mM NaCl, 0.3 mM TCEP, 1 uM DNA, 0.5 uM ran17, 0-10 uM BED, 1 h 4 C then 15 min RT; 15% PAGE 0.5X TBE; Hermes SEC at 150 mM. The following applies: protein: recombinant; tags: untagged; label: 5'-6FAM top strand (EMSA); blunt.

Usually stoichiometry N stands for the number of molecules, sites or subunits per partner or assembly. Take “full-length Hermes transposase (with the mutations Q2E and K128G) (from UniProt Q25442 1-612) (enzyme)”: the stoichiometry N was 8 in data set [1]; 8 in data set [2]; 6 and 8 in data set [3]; 6 monomers and 8 monomers in data set [4]; 6 in data set [5].

B1: LE11-27 (dsDNA)
DNA 1: CAACAAGTGGCTTATTT
DNA 2: AAATAAGCCACTTGTTG
In general, Kd refers to the concentration at which binding is half-saturated. Consider B1, for which the Kd in the data set with Hermes BED domain [6] was 2.5 ± 0.2 µM.

B2: LE11-27mut (dsDNA)
DNA 1: CAACAAGTGTTTTATTT
DNA 2: AAATAAAACACTTGTTG
Consider B2, for which the binding result with Hermes BED domain [7] is “binds”.

(Values after paper PMC10368747, “Zinc-finger BED domains drive the formation of the active Hermes transpososome by asymmetric DNA binding”.)
